The source of these data is patent US20230348612A1 (BEIJING MABWORKS BIOTECH, published 2023).

The target in the assay is T1, CD20 on Raji cells (CD20+ tumor cells) (UniProt P11836 1-297, limits assumed).
T1 construct: whole, on cells; also called CD20^+ Raji cells
T1 sequence (looked up): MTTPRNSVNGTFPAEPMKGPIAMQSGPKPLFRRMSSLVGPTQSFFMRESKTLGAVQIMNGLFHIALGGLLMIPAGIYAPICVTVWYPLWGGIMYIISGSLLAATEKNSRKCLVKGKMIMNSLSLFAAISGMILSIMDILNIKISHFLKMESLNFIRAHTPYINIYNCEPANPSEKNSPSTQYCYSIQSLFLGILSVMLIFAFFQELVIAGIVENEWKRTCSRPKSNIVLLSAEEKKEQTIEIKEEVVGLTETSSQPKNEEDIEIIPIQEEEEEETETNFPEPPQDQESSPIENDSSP
Briefly: FACS on Raji cells.

Protocol: For the assay to test the MBS303 and MBS303m′ binding activity to Raji and Jurkat cells, 10⁵ Raji or Jurkat cells were plated on 96-well ELISA plates in 100 μ1 cell culture medium, and the ELISA plates were added with 50 μl serially diluted MBS303 and MBS303m, respectively. […] The ELISA plates were incubated 4° C. for 1 h, washed with PBS for three times, and subject to the BD flow cytometry system for FACS.

B1: MBS303 (anti-CD3/CD20 bispecific antibody, anti-CD20 scFv with wildtype light chain framework regions) (bispecific antibody, human IgG1, kappa, lambda, L234A L235A, N297A)
heavy 1: QVQLVQSGAEVKKPGSSVKVSCKASGYAFSYSWINWVRQAPGQGLEWMGRIFPGDGDTDYNGKFKGRVTITADKSTSTAYMELSSLRSEDTAVYYCARNVFDGYWLVYWGQGTLVTVSSASTKGPSVFPLAPSSKSTSGGTAALGCLVKDYFPEPVTVSWNSGALTSGVHTFPAVLQSSGLYSLSSVVTVPSSSLGTQTYICNVNHKPSNTKVDKKVEPKSCDKTHTCPPCPAPEAAGGPSVFLFPPKPKDTLMISRTPEVTCVVVDVSHEDPEVKFNWYVDGVEVHNAKTKPREEQYASTYRVVSVLTVLHQDWLNGKEYKCKVSNKALPAPIEKTISKAKGQPREPQVYTLPPSREEMTKNQVSLSCAVKGFYPSDIAVEWESNGQPENNYKTTPPVLDSDGSFFLVSKLTVDKSRWQQGNVFSCSVMHEALHNHYTQKSLSLSPGK
light 1: DIVMTQTPLSLPVTPGEPASISCRSSKSLLHSNGITYLYWYLQKPGQSPQLLIYQMSNLVSGVPDRFSGSGSGTDFTLKISRVEAEDVGVYYCAQNLELPYTFGGGTKVEIKRTVAAPSVFIFPPSDEQLKSGTASVVCLLNNFYPREAKVQWKVDNALQSGNSQESVTEQDSKDSTYSLSSTLTLSKADYEKHKVYACEVTHQGLSSPVTKSFNRGEC
heavy 2: QVQLVQSGAEVKKPGSSVKVSCKASGYAFSYSWINWVRQAPGQGLEWMGRIFPGDGDTDYNGKFKGRVTITADKSTSTAYMELSSLRSEDTAVYYCARNVFDGYWLVYWGQGTLVTVSSGGGGSGGGGSGGGGSDIVMTQTPLSLPVTPGEPASISCRSSKSLLHSNGITYLYWYLQKPGQSPQLLIYQMSNLVSGVPDRFSGSGSGTDFTLKISRVEAEDVGVYYCAQNLELPYTFGGGTKVEIKGGGGSGGGGSGGGGSEVQLLESGGGLVQPGGSLRLSCAASGFTFNTYAMNWVRQAPGKGLEWVARIRSKYNNYATYYAISVKDRFTISRDDSKNTLYLQMNSLRAEDTAMYYCVRHGNFGNSYLSYWAYWGQGTLVTVSSASTKGPSVFPLAPSSKSTSGGTAALGCLVKDYFPEPVTVSWNSGALTSGVHTFPAVLQSSGLYSLSSVVTVPSSSLGTQTYICNVNHKPSNTKVDKKVEPKSCDKTHTCPPCPAPEAAGGPSVFLFPPKPKDTLMISRTPEVTCVVVDVSHEDPEVKFNWYVDGVEVHNAKTKPREEQYASTYRVVSVLTVLHQDWLNGKEYKCKVSNKALPAPIEKTISKAKGQPREPQVYTLPPSREEMTKNQVSLWCLVKGFYPSDIAVEWESNGQPENNYKTTPPVLDSDGSFFLYSKLTVDKSRWQQGNVFSCSVMHEALHNHYTQKSLSLSPGK
light 2: QAVVTQEPSLTVSPGGTVTLTCQSSTGAVTTNNYANWVQQKPGHAFRGLIGGTKQRAPGVPARFSGSLLGGKAALTLSGVQPEDEAEYYCVLWYSNLWVFGGGTKLTVLGQPKAAPSVTLFPPSSEELQANKATLVCLISDFYPGAVTVAWKADSSPVKAGVETTTPSKQSNNKYAASSYLSLTPEQWKSHRSYSCQVTHEGSTVEKTVAPTECS
notes: Asymmetric; half antibodies MIL220 and MIL221-2 were expressed separately and assembled in vitro; also called MIL220 + MIL221-2
For B1, the binding result was “binds”.

B2: MBS303m (with 83E, 100Q and 104-106LTA) (anti-CD3/CD20 bispecific antibody, anti-CD20 scFv with mutated light chain framework regions) (bispecific antibody, human IgG1, kappa, lambda, L234A L235A, N297A)
heavy 1: QVQLVQSGAEVKKPGSSVKVSCKASGYAFSYSWINWVRQAPGQGLEWMGRIFPGDGDTDYNGKFKGRVTITADKSTSTAYMELSSLRSEDTAVYYCARNVFDGYWLVYWGQGTLVTVSSASTKGPSVFPLAPSSKSTSGGTAALGCLVKDYFPEPVTVSWNSGALTSGVHTFPAVLQSSGLYSLSSVVTVPSSSLGTQTYICNVNHKPSNTKVDKKVEPKSCDKTHTCPPCPAPEAAGGPSVFLFPPKPKDTLMISRTPEVTCVVVDVSHEDPEVKFNWYVDGVEVHNAKTKPREEQYASTYRVVSVLTVLHQDWLNGKEYKCKVSNKALPAPIEKTISKAKGQPREPQVYTLPPSREEMTKNQVSLSCAVKGFYPSDIAVEWESNGQPENNYKTTPPVLDSDGSFFLVSKLTVDKSRWQQGNVFSCSVMHEALHNHYTQKSLSLSPGK
light 1: DIVMTQTPLSLPVTPGEPASISCRSSKSLLHSNGITYLYWYLQKPGQSPQLLIYQMSNLVSGVPDRFSGSGSGTDFTLKISRVEAEDVGVYYCAQNLELPYTFGGGTKVEIKRTVAAPSVFIFPPSDEQLKSGTASVVCLLNNFYPREAKVQWKVDNALQSGNSQESVTEQDSKDSTYSLSSTLTLSKADYEKHKVYACEVTHQGLSSPVTKSFNRGEC
heavy 2: QVQLVQSGAEVKKPGSSVKVSCKASGYAFSYSWINWVRQAPGQGLEWMGRIFPGDGDTDYNGKFKGRVTITADKSTSTAYMELSSLRSEDTAVYYCARNVFDGYWLVYWGQGTLVTVSSGGGGSGGGGSGGGGSGGGGSDIVMTQTPLSLPVTPGEPASISCRSSKSLLHSNGITYLYWYLQKPGQSPQLLIYQMSNLVSGVPDRFSGSGSGTDFTLKISRVEAEDEGVYYCAQNLELPYTFGQGTKLTAKGGGGSGGGGSGGGGSEVQLLESGGGLVQPGGSLRLSCAASGFTFNTYAMNWVRQAPGKGLEWVARIRSKYNNYATYYAISVKDRFTISRDDSKNTLYLQMNSLRAEDTAMYYCVRHGNFGNSYLSYWAYWGQGTLVTVSSASTKGPSVFPLAPSSKSTSGGTAALGCLVKDYFPEPVTVSWNSGALTSGVHTFPAVLQSSGLYSLSSVVTVPSSSLGTQTYICNVNHKPSNTKVDKKVEPKSCDKTHTCPPCPAPEAAGGPSVFLFPPKPKDTLMISRTPEVTCVVVDVSHEDPEVKFNWYVDGVEVHNAKTKPREEQYASTYRVVSVLTVLHQDWLNGKEYKCKVSNKALPAPIEKTISKAKGQPREPQVYTLPPSREEMTKNQVSLWCLVKGFYPSDIAVEWESNGQPENNYKTTPPVLDSDGSFFLYSKLTVDKSRWQQGNVFSCSVMHEALHNHYTQKSLSLSPGK
light 2: QAVVTQEPSLTVSPGGTVTLTCQSSTGAVTTNNYANWVQQKPGHAFRGLIGGTKQRAPGVPARFSGSLLGGKAALTLSGVQPEDEAEYYCVLWYSNLWVFGGGTKLTVLGQPKAAPSVTLFPPSSEELQANKATLVCLISDFYPGAVTVAWKADSSPVKAGVETTTPSKQSNNKYAASSYLSLTPEQWKSHRSYSCQVTHEGSTVEKTVAPTECS
notes: also called MIL220 + MIL221-3 (with 83E, 100Q, 104-106LTA)
As to B2, the binding result is “binds”.
